Measurements: patent US6004793

Test system: AvaI restriction endonuclease (recombinant) V1M (start codon GTG changed to ATG) (Anabaena variabilis)
Experiment: cleavage_in_vitro
Conditions: extract of ER2504 [pLG-BsoBIM, pLysS, pAII17-AvaIR]; lambda DNA digestion; recognition site not given

## bacteriophage lambda DNA
  activity (units/g wet cells): 6.4e+06
